Here are results for 18 sequences from the DeepSol protein solubility set.

This data set is described as follows: soluble on expression in E. coli; label from the status in PepcDB or PDB records.
Take “MSLATTREEALHIHRENQGKLESKSKVPVRNARDLSLAYSPGVAEPCKEIFEDVETVYEYTMKGNMVAVVSNGTAVLGLGNIGPEASLPVMEGKAVLFKSFAGVDAFPICLRTTDVDQIVETVKLLEPTFGGVNLEDIAAPSCFEIEERLKKETNIPVFHDDQHGTAIVTLAGLINALKLTGKRMSEIKVVANGAGAAGIAIIKLMQRMGVRDIIMCDSKGAIYDGRPYGMNDMKAEVAKWTNRDKIDGGLGDVLKGADVFIGVSVAGALTKEMIENMNDDPIIFAMANPVPEIMPEEAKAAGAKVIGTGRSDFPNQVNNVLAFPGIFRGALDARATHINEEMKVAAVHAIADLVAEEDLDPDYVIPAPFDPRVAPAVAAAVAKTAMETGVARRKVDPAEVEAKTKKLAIIEEGHHHHHH”: the “soluble on expression in E. coli” value is “soluble”.
“MSLAVTLADVARRAGVSLATASRVLNGSARAVSDEMRARVTAAARELHYVPNAHAQALARAATQTVGVIVHDVSDPYFAEILRGIQRSAADAGRLMIVCNTFRDPQRELEYVHLLQKQRVEAIILAGSGLDDRAYCRSMTERLDSFASMGGRVAVIGRHNIAADAVVPDNVGGARALAHYLLDLGHRSFGIIDGPALLTTSRDRRSGFVQALQAGGITLPPDAIIPGDFTRDGGAQAAIRLLERFPSITAIFALNDVMAIGALAALRERGITVPDQMSIVGFDDIPIAADVTPALTTMRVPMSQLGSEALALALSAEDTLRTIHLPTEMIVRQSTAEGHHHHHH”: the “soluble on expression in E. coli” value was “soluble”.
Under “MSLAWLISEFASVGDVTVRALRYYDKINLLKPSDYTEGGHRLYTKDDLYVLQQIQSFKHLGFSLGEIQNIILQRDIETEVFLRQMHFQREVLLAEQERIAKVLSHMDEMTKKFQKEERVNVALFSSFLQTFIWEKENKEWLEEHFSTESIQAFYNNKELKEKFDRRFMDVIGKLKKYKEEEKDPSHHDVQVTLKEFFHLIEKITDYLDISQSEVVSVIKQSKISMAEFPTLFTNEEEQYIKEAMNKEGHHHHHH” stands “soluble”; under “MSLAYQALYRVFRPQSFQDVVGQEHVTKTLKNAIVQNKTSHAYLFSGPRGTGKTSAAKIFAKAINCEHGHDGEPCNECEICKGTTDGSIPDVLEIDAASNNGVEEIRDIREKVKYAPTVAKYKVYIIDEVHMLSTGAFNALLKTLEEPPKHVIFILATTEPHKLPLTIISRVQRFDFKRITTQDIIGRLKFILEEEKIPYDEKALMIVARAAEGGMRDALSLLDQVISYGSEEVTVEDALEITGSVAQNLLTKLVSAAFDGDAAEAISTLTALLAEGKDPVRLVEDLLVFFRDVLLYQKAPNLEETLERALIDDDFVALAKRADSLKVYEFVKILNTAQQQMRFSNHPGIYVEVALIQLTQAGEGHHHHHH”, “soluble”.
Take “MSLCAVTLMACNTAPHSLASSLPVPDALLFPQVQPEYKVAPGDLLLIKVFQVDDLERQVRVDNTGRITLPLLGSIEVSNKGAAELETLIANRYRSDYLQDPQVSVFIQEANARRVTVTGAVTEPGTYPLIGSNLTLQQVIAQAKGINTLASLQNVVVFRTVKGQKMLARFDLARIERGKDPDPEIYPGDLVVVYRSDMRLFLRTLVEITPFVMVWRAYREGHHHHHH”: the “soluble on expression in E. coli” value was “soluble”.
Under “MSLCDQKNDTLQGKQNNMTAFIKKIAASKESEETQRYVGNLNGIEIKLTYYYKGDIVLRQISEHKLLYKTLKANNKEEAQKMLSQVGEAYQGMPGLTERIDYYDSYATEYVDINFTQAKISDLCKLPGSSIDNCSAYYLSMIRSQKLLEESGYHRINEGHHHHHH” stands “soluble”; under “MSLCELSYLNAVVMLKAQRGGNSGLYFGSMTTFITSGGLEISPAGAHIVHAESPEGELLFVSSASQYGEGNAIRGGVPIIAPWFGGLLGLDPAHGWAKRSAWDVTEHDGQIHAEYGRDGLLLDIRANSTKNGFEITLRAYNDTDEARTVQLAFHPYFKVDDVEKIEVRGLDGVDILNRLNNEVETQDGPVTFDGEFDRIALGTPVVRIFDTDRIITIEGDGHDSTVVWNPGESRASTVADIGEGEWRDFVCVEPALLGADQKGVRVAPGQSVTVGMQVSVEKRAEGHHHHHH”, “soluble”; under “MSLCGIAGLFNCNLPADELRLDQAVAKLTHRGPDDRGIFLDGRFGMGHTRLSIIDLAGGHQPLFSEDRRLALIANGEIYNFIELRSELTAAGFRFQTQSDSEVILHAYLAFGEGFLERIQGMFAFALYDALEGRLILARDRLGIKPLFLARRPDGIAFASEIKALLPLLDQPREIDPQGLAQYFQNQFSTGATTVLRGVERVLPGEAVVVEAGKTTRRFRYWSPLAVRTEELDFDEAAARFDALMERVMVEHMRSDVPFGLFLSGGVDSSLLLALLTRYSGEPIRTFSVGFPGTSLTDELPLAEGLARRFRSRHREIRPGPQDILHSLPLTVWAADDLMRDNASLPTSLLARAAGEELKVVFSGEGGDEVFAGYGRYRTSPLERLFKSLLAPGSGGFRTRGSFRGRWPKTLFGPALLAAAQSARRPVQESWRETPREWSDLQRMQYVDLCHALPDNLLVKADRMLMAWGVEGRVPFLDHRVVEFGLSLPDRLKIEGRQGKLFLKRWGERLVPAEQLYARKEGHHHHHH”, “not soluble”.
Turning to “MSLCLPTIRKIAIIGAGPSGLVTAKALLAEKAFDQVTLFERRGSPGGVWNYTSTLSNKLPVPSTNPILTTEPIVGPAALPVYPSPLYRDLQTNTPIELMGYCDQSFKPQTLQFPHRHTIQEYQRIYAQPLLPFIKLATDVLDIEKKDGSWVVTYKGTKAGSPISKDIFDAVSICNGHYEVPYIPNIKGLDEYAKAVPGSVLHSSLFREPELFVGESVLVVGGASSANDLVRHLTPVAKHPIYQSLLGGGDIQNESLQQVPEITKFDPTTREIYLKGGKVLSNIDRVIYCTGYLYSVPFPSLAKLKSPETKLIDDGSHVHNVYQHIFYIPDPTLAFVGLALHVVPFPTSQAQAAFLARVWSGRLKLPSKEEQLKWQDELMFSLSGANNMYHSLDYPKDATYINKLHDWCKQATPVLEEEFPSPYWGEKERSIRENMWSIRAKFFGIEPPKEGHHHHHH”, the “soluble on expression in E. coli” value is on record as “soluble”.
As for “MSLCLSAQRLGEEPRVNSTGRYSGPMRVLHLASEVFPFSRSGGLGDVLGALPAVQARLGEDAEVTVLSPWYASLQGEPQELWRGEAWGEQAWLGELRQDGVRYLFLGLNEFQRPGLYHPDDVERFCAFGRAALPALDAVGVTPDVLHGHDWQAGLVVAHARLRGLRTAFSVHNLQYQGRWNLHEAAGWTGLPDWTFGPDGVEFFGDLNLMKAGLNFAGHVTTVSPTYAQEITTPQYGEGLEGLLVRLTHEGRLSGILNGLDQDRWNPRTDPDIAAYSDPAGKAGAVKALRQEFGLDDAPILATVSRLADQKGMDLLITALPELVRDWNVVVLGGGDPLLEAALTGWANHPRVAFASGMNEPLAHRIYAGAHAFAMPSRFEPCGLSQLIAMRYGTLPIVRETGGLADTVPPEVGFRFADATAPAFLQACREAQAAFQDPAQWQTRATRAMSLDFSWDGPARQYLELYRGLEGHHHHHH”, the “soluble on expression in E. coli” value is “soluble”.
Turning to “MSLCQLLGMNCNTPTDIMFSFEGFRRRGGITDHHADGFGIGFFEGKGVRLFHDDKPSVNSPVADLVRAYQIKSENVIAHIRKASQGQTSLANTHPFMREMWGGYWLFAHNGHLIDFFPEQGEFFHPVGTTDSERAFCHILNRLRTRFAARPDDDTLFDAIAGLTHEIRKFGLFNFMLSDGIALFAHASTLLHYIVRQAPFGKEGHHHHHH”, the “soluble on expression in E. coli” value is “not soluble”.
With “MSLCWILMASHAQAEPFKIGLLVWSDQIAGQVAMRAGLEAEAAHLQQQARDKNLPSFTLDIKLAGDGPAGVEKQIQQMQAMVDDRVDLIIVQPTDNAALSSPLQAANQAGIPVVAYDQYISGGHLSAFVTSNNYQAGFLDGEYMAHHFADDHTIQIILVEYPYVSSTIDRVDGFFDALNQYKQPYRILRSYQAVEPVQGRAVGQQILQDFPQPGSVDALFTINDGGGLAIVDELEKAGRHELFVATIDGDPNSVARIRKGSIIKIDSAQFCGPIGAEAMRAAYAILTAGKVHEHWLVPVFPITRQSVAHYPGWSGPIPEHYSNPCLTFLCREGHHHHHH”, the “soluble on expression in E. coli” value is “soluble”.
Turning to “MSLDEGLLNKVKERGTLLVGLEGTYPPFSFQGDDGKLTGFEVEFAQQLAKHLGVEASLKPTKWDGMLASLDSKRIDVVINQVTISDERKKKYDFSTPYTISGIQALVKKGNEGTIKTADDLKGKKVGVGLGTNYEEWLRQNVQGVDVRTYDDDPTKYQDLRVGRIDAILVDRLAALDLVKKTNDTLAVTGEAFSRQESGVALRKGNEDLLKAVNDAIAEMQKDGTLQALSEKWFGADVTEGHHHHHH”, the “soluble on expression in E. coli” value is on record as “soluble”.
Turning to “MSLDHRKRESINDKNKMKVYTTVYAFQSLTQQIGGKYVDVQSIYPDGADLHSYEPTQKDMIDIAKSDLFVYSSHQLDPVAAKITNSMTNNSMKLALAEGLKQSDFIDSKGHDEDHEHHSHHEESNQDPHVWLDPVLNQKFAFMIKEKLIEKDPKHQAYYNKNYKMVNKDIVHIDQQLQSITKHSKRDKVVISHDSLGYLAHRYGFKQQGVKGMNDEEPSQKEILNIVKDIQHSHAPYVLYEQNITSKITDVIKKETDTKPLSFHNLAVLTKEEQNDDSISYQSLMKKNIYVLNRALNNEGHHHHHH”, the “soluble on expression in E. coli” value was “soluble”.
For the sequence “MSLDIAELHRAGDDIKEMMKSEGYYSEPSKYEAELSDGNITFAYSYPIKAFEKFLGYYDRENRIAFNPSISMRTDFSFCLAACRYRKNGKTDTVVLDGYADNKYYKKAKFALDKFRSEYSINGSFDFYIKRYRRYQKAKGLSESSAVAAAVSRALISNVFGDDAAKDDIFVSRYARLVSGSGTRAAHDGISMWLSYPGMDSRDCVAFKVGKSNENLNYGVFPKYSDVATDNAHSIAVNSVFYGTWVSEKFSNVKRLISDHFDINDLLKIGENDMLRLNSILMSGGLIIQTPDSLRILKEILKFKSKNEGFYFTADTGPSIAIFSFDRSLIDEFRENVNDEYIEGSYDFKGYNNRMRDFIREAQEYFTQTPGEDEEDREGHHHHHH”, the “soluble on expression in E. coli” value was “soluble”.
“MSLDINQIALHQLIKRDEQNLELVLRDSLLEPTETVVEMVAELHRVYSAKNKAYGLFSEESELAQTLRLQRQGEEDFLAFSRAATGRLRDELAKYPFADGGFVLFCHYRYLAVEYLLVAVLSNLSSMRVNENLDINPTHYLDINHADIVARIDLTEWETNPESTRYLTFLKGRVGRKVADFFMDFLGASEGLNAKAQNRGLLQAVDDFTAEAQLDKAERQNVRQQVYSYCNEQLQAGEEIELKSLSKELAGVSEVSFTEFAAEKGYELEESFPADRSTLRQLTKFAGSGGGLTINFDAMLLGERIFWDPATDTLTIKGTPPNLRDQLQRRTSGGNLEHHHHHH”: the “soluble on expression in E. coli” value is “not soluble”.
In the case of “MSLDIRRANSADLNALNALEQQLFDGDRISPRQMKRFLHSDHAALFVADAGDQLAGYALLLFHQGTQLSRLYSIAVKPEFRGQRIAQSLVEQCERAALDQGSTTLRLEVREDNTAALKLYEKMGYKTLKLLIHYYDDLCDGRRMQKRLTPQESKVLLPMPLYVQTTPFTCGAACLLMSFACLDKTFEPSRTQEMQLWREATTIFMAAGHGGCSGQGLALAAARRGYHVELWNQSRSTPFIDSVRDPNKKQIIELVHQDFCQQLAEQDVSMIDAPPSQAQLEEWVRKGACVLLLISTYRFDGKKEPHWIVLSGLSDKFFFFHDPHAESEEHVSGSGYIPVGKAALSQIIGFGKQKQIACVVITPRLEGHHHHHH”, the “soluble on expression in E. coli” value was “soluble”.
On to “MSLDLFSVRMRAQKNGKHVSGAERIVKKEELETAVKELLNRPKEFDFMNVKVEKVKDFEVVKFNLKISTYSFKSPEEAREFAVKKLTQEGIKEEVAKKAVEILSKGANPKGGNMRGAVLMDIETGERLEEDKERGVRTIHFDWKDRKKVTEKLLKEGYTLRTVDALALTFKNLFCGVVAELCWSDDPDYVTGYVSGKEIGYVRITPLKEKGDPLGGRVYFVSRKELSEIIECLTQKVVLIELEGHHHHHH”, for which the “soluble on expression in E. coli” value is “soluble”.
